Data taken from article PMC8287928.
pKd: −log10 of the molar value.

Molecular target: SARS-CoV-2 spike pseudotyped lentivirus (PV) (SARS-CoV-2 (Wuhan-Hu-1)) (UniProt P0DTC2)
Assay: dot blot (filter binding)

Sequence | pKd
TTACGTCAAGGTGTCACTCCACGGGTTTGGCGTCGGGCCTGGCGGGGGGATAGTGCGGTGGAAGCATCTCTTTGGCGTG [MSA5] | 10.93
TTACGTCAAGGTGTCACTCCCACTTTCCGGTTAATTTATGCTCTACCCGTCCACCTACCGGAAGCATCTCTTTGGCGTG [MSA1] | 10.64
